To fix the notation:
B1: wild-type Gallus gallus Fyn SH3 domain (T85-D142) (domain or fragment)
chain: not shown
notes: 7 residues added to the N terminus of the domain; Tyrosine-protein kinase Fyn, Gallus gallus, SH3 domain, residues T85-D142; a single arginine added to the C terminus of the domain; The same protein was measured native and unfolded (diluted from 9.5 M urea); the quantity of each row says which state; Primer 1 has a BamHI site (GGA TCC, Gly-Ser) before GAMVQIS, so further residues may remain after …
B2: SpyQ100L (natural protein, E. coli, UniProt P77754 24-161, looked up)
chain: ADTTTAAPADAKPMMHHKGKFGPHQDMMFKDLNLTDAQKQQIREIMKGQRDQMKRPPLEERRAMHDIIASDTFDKVKAEAQIAKMEEQRKANMLAHMETLNKIYNILTPEQKKQFNANFEKRLTERPAAKGKMPATAE
notes: Spy of E. coli with Q100L; also called Spy variant Q100L; source: E. coli BL21 (DE3), purified (Ni-His Trap, HiTrap Q, Superdex 75); not shown: His, N-terminal, cleaved; SUMO, N-terminal, cleaved
B3: SpyH96L (natural protein, E. coli, UniProt P77754 24-161, looked up)
chain: ADTTTAAPADAKPMMHHKGKFGPHQDMMFKDLNLTDAQKQQIREIMKGQRDQMKRPPLEERRAMHDIIASDTFDKVKAEAQIAKMEEQRKANMLALMETQNKIYNILTPEQKKQFNANFEKRLTERPAAKGKMPATAE
notes: Spy of E. coli with H96L; also called Spy variant H96L; source: E. coli BL21 (DE3), purified (Ni-His Trap, HiTrap Q, Superdex 75); not shown: His, N-terminal, cleaved; SUMO, N-terminal, cleaved
B4: wild-type Spy (natural protein, E. coli, UniProt P77754 24-161, looked up)
chain: ADTTTAAPADAKPMMHHKGKFGPHQDMMFKDLNLTDAQKQQIREIMKGQRDQMKRPPLEERRAMHDIIASDTFDKVKAEAQIAKMEEQRKANMLAHMETQNKIYNILTPEQKKQFNANFEKRLTERPAAKGKMPATAE
notes: ATP-independent periplasmic chaperone Spy of E. coli; also called SpyWT; Spy dimer; source: E. coli BL21 (DE3), purified (Ni-His Trap, HiTrap Q, Superdex 75); not shown: His, N-terminal, cleaved; SUMO, N-terminal, cleaved

Holding throughout (details): both partners purified
Test [1] deals with B4. Kind of test: ITC; MicroCal iTC200, 25 °C; HN buffer (40 mM HEPES pH 7.5, 50 mM NaCl) with 0.83 M urea; 2.4 mM SH3 in the syringe titrated into 100 μM Spy or Spy variant in the cell; one-site model; native SH3.
Test [2] has as its target B4. Described as above. The source holds these as a separate data set.
For the test “SpyH96L”, the target named is B3. The description is as above.
In the test “SpyQ100L” the target is B2. Described as above.
In test [3] the target is B1. Briefly: stopped-flow tryptophan fluorescence kinetics with global fitting; KinTek SF-300X, 25 °C; HN buffer, 0.83 M urea after mixing; 4.8 μM SH3, refolded from 9.5 M urea or native, mixed 1:10.5 with varied Spy (concentrations as dimer); global fit (KinTek Explorer) to the mechanism that allows folding while bound; k-3 fixed at 1000 s^-1.

On to B1, for which the “stoichiometry N” value with wild-type Spy [1] came to 1. Moreover, the Kd is 50 ± 6 µM with wild-type Spy [2], 71 ± 19 µM with SpyH96L and 107 ± 25 µM in the test with SpyQ100L.

Regarding B2, in test [3], the “Kd (native SH3)” value worked out at 17 ± 1 µM; the “Kd (unfolded SH3)” value is 0.04 ± 0.003 µM; the “k2 (association, unfolded SH3)” value came to 1.71e+08 ± 8e+06 M⁻¹ s⁻¹; the “k3 (association, native SH3)” value is 6e+07 ± 2e+06 M⁻¹ s⁻¹. In addition, the “k-2 (dissociation, unfolded SH3)” value in test [3] worked out at 6.8 ± 0.3 s⁻¹.

Turning to B3, in test [3], the “Kd (native SH3)” value was 11 ± 1 µM; the “Kd (unfolded SH3)” value was 0.76 ± 0.05 µM; the “k2 (association, unfolded SH3)” value came to 2.3e+07 ± 1e+06 M⁻¹ s⁻¹; the “k3 (association, native SH3)” value is 9.1e+07 ± 1e+07 M⁻¹ s⁻¹. The “k-2 (dissociation, unfolded SH3)” value in test [3] was 17.4 ± 0.7 s⁻¹.

Regarding B4, in test [3], the “Kd (native SH3)” value is 83 ± 55 µM; the “Kd (unfolded SH3)” value was found to be 2.9 ± 0.3 µM; the “k2 (association, unfolded SH3)” value turned out to be 1.4e+07 ± 1e+06 M⁻¹ s⁻¹; the “k3 (association, native SH3)” value was determined as 1.2e+07 ± 8e+06 M⁻¹ s⁻¹. Further, the “k-2 (dissociation, unfolded SH3)” value in test [3] was determined as 39 ± 3 s⁻¹.
